Values quoted from earlier work as cited in PMC6667839.

Target: IL-33 112-270 (Homo sapiens) (UniProt O95760)
UniProt O95760, sequence (O95760 112-270): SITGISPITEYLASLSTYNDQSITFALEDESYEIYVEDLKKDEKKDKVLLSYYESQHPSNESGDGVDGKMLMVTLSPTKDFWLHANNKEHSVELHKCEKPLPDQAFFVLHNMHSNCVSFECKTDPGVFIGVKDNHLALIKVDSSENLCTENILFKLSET

- Kd: 4 nM
Substance: sST2 (from UniProt Q01638)
